Reference: patent US20120107364A1 (ACTGEN, published 2012)

Legend:
[1] = target: T1, PODXL2, positions 1 to 390 (human, UniProt O00592 23-422); assay: flow cytometry on Ba/F3 cells expressing the truncated PODXL2
T1 construct: One of the 14 C-terminal truncations in 10-residue steps; Expressed on Ba/F3 cells; also called R390
T1 sequence: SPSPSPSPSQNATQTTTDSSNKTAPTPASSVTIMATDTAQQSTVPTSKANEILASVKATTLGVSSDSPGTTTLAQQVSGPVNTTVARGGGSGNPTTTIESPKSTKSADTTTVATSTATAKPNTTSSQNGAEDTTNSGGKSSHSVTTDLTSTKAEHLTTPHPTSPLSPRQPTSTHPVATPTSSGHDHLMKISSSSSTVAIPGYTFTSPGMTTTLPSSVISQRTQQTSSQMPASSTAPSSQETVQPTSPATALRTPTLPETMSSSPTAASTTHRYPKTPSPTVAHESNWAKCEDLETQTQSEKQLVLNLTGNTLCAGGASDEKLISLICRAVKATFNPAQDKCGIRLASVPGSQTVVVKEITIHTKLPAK
Procedure: (§1) To each sample of the cell suspension, 50 μl of the hybridoma culture supernatant or 2-μg/ml of the purified antibody (hereinafter, referred to as an “antibody solution”) was added, and the antibody was reacted with the cells. As an isotype control of the antibody solution, a wash buffer containing 2 μg/ml of each of mouse IgG1 (BioLegend, 400412), mouse IgG2a (BioLegend, 400224), and mouse IgG2b (BioLegend, 400324) was used. The hybridoma culture supernatant was reacted with the target cells at room temperature for 30 minutes, followed by centrifugation at 700×g for 2 minutes. Then, a culture supernatant was removed. Further, 100 μl of a wash buffer was added, followed by centrifugation at 700×g for 2 minutes again. A supernatant was removed. Then, the cells were washed.
(§2) Next, to the cell pellets after the washing, 50 μl of Goat anti-mouse IgG, F(ab′) 2-PE (PE=phycoerythrin, Beckman Coulter, IM0855) diluted 200-fold with a wash buffer was added as a secondary antibody for detection, and reacted in the dark at room temperature for 30 minutes. The reaction was followed by centrifugation at 700×g for 2 minutes. A supernatant was removed. Further, 100 μl of a wash buffer was added, followed by centrifugation at 700×g for 2 minutes again. A supernatant was removed. Then, the cells were washed. Thereafter, the cells were suspended in an appropriate amount of a wash buffer. The reactivity between the antibody and the cells was analyzed by a flow cytometer (Beckman Coulter, FC500 MPL).
(§3) Thereafter, by the same method as in Example 1 (4) (the virus packaging and thereafter), Ba/F3 cells containing the PODXL2 gene sequences of various chain lengths were prepared. Further, by the same method as in Example 4, the reactivity between the ACT36-27_{—}5D1 antibody and the Ba/F3 cells expressing the PODXL2 molecules of various chain lengths was analyzed by a flow cytometer (FIG. 10).

[2] = target: T2, PODXL2, positions 1 to 330 (human, UniProt O00592 23-362); assay: as above
T2 construct: One of the 14 C-terminal truncations; Expressed on Ba/F3 cells; also called R330
T2 sequence: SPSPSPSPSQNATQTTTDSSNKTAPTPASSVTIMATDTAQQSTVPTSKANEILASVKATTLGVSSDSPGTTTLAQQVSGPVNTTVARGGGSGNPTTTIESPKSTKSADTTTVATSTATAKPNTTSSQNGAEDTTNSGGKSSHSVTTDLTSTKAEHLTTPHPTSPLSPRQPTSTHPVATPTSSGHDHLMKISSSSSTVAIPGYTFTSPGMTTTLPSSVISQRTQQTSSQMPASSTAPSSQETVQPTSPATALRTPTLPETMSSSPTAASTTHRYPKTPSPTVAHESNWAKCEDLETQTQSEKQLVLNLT
Procedure: as §1, §2, §3

[3] = target: T3, PODXL2, positions 1 to 320 (human, UniProt O00592 23-352); assay: as above
T3 construct: One of the 14 C-terminal truncations; Expressed on Ba/F3 cells; also called R320
T3 sequence: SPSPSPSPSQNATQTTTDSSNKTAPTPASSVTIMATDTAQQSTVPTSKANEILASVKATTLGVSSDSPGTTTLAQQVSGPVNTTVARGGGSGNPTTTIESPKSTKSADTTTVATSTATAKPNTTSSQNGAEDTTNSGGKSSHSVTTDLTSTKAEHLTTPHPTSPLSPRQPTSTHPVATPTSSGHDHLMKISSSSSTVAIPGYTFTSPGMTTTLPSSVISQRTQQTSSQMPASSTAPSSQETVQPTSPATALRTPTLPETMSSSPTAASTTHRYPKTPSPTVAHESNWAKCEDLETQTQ
Procedure: as §1, §2, §3

[4] = target: T4, human-derived PODXL2 protein (Homo sapiens podocalyxin-like (PODXL), transcript variant 2, NM-005397.3), full … (human, UniProt O00592 23-558); assay: flow cytometry on Ba/F3 cells expressing PODXL2 against negative control Ba/F3 cells (FIG. 1)
T4 construct: 526 amino acids; also called full-length PODXL2 gene
T4 sequence: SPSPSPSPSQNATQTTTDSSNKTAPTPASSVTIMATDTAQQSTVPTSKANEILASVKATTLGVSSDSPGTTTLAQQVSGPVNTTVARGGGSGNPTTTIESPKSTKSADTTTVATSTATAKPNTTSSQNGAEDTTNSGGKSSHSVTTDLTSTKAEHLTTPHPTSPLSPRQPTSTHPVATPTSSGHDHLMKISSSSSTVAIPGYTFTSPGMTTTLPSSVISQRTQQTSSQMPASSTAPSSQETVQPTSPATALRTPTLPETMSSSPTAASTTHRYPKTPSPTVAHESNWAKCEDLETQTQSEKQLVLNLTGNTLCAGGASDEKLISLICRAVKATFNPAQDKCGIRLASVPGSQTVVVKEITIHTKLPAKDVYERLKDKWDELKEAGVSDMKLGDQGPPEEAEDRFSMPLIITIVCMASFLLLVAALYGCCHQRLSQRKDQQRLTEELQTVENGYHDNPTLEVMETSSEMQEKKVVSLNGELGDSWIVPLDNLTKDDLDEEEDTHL
Procedure: as §1
as §2, with “Then, the cells were washed. Thereafter, the cells were suspended in an appropriate amount of a wash buffer.” left out

binding result [1]: no binding
binding result [2]: no binding
binding result [3]: no binding
binding result [4]: binds
B1: ACT36-27-5D1 antibody (antibody, V domains shown)
VH: EVQLQQSGPELVKPGASVKMSCKASGYTFTSYVMHWVKQKPGQGLEWIGYIHPYNDGIKYNEKFKGKATLTSDKSSSTAYMDLSSLTSEDSAVYYCARSWDWYFDVWAAGTTVTVSS
VL: QIVLTQSPAIMSASPGEKVSMTCSASSSVSYMHWYQQKSGTSPKRWIYDTSKLASGVPARFSGSGSGTSYSLTISSMEAEDAATYYCLQWSSNPPTFGGGTKLE
notes: also called anti-PODXL2 antibody ACT36-27-5D1; anti-ACT36-27-5D1 monoclonal antibody
